test: label from the status in PepcDB records

Row | Sequence | protein production
1 | MRAFLRVVETGNFTRASASLNMPKATVTNLIQGLEAHLRTKLLNRTTRRVLVTPDGALYYERAARLLSDLDELDGSLSTAQSLPKGRLRVETASAFANLVIIPALPEFHKKYPDIQIDLGVSDRTIDYLAENVDCAIRAGTLTDQSLIARRITEMKFVACASRDFLERHPVPQHPSDLEKNCYVVGYFLPKTGQQMPFHFRRGNEEIEVSGRYTVAANESTTYLAAARAGLGVIQAPLFMVREDLRNGTMVPVLPDWQVEPMPIYLVYPPNRHLSSRLRVFADWVVKVMAQSQNGE | not failed
2 | MRAFYSTTEEISALFAKQQEQLKTMQRTLEDEDNCDNTSLDIDLNPINRSPNRANTQGDKRATSHLNFAARASSSTSGQRSTRNEVVDTSCEDADATQKHDCEIMSQEGQNTQEAEYPSSDKVAKGGFGSDIEGIGTAPTSGTDPVGTEQVNETQSPGNDYERNDHLRKSIILAGDTMQIDCETQVHESVQIEGAVLLLRNPNDRRDTQDIEGVGTIGTSDLLASEVAGSWANSTNPSVHGENETERSREDEESQTQKIKEVTIVQDSAGQIGESQTKPTSPGVLVTNKDDAERGVINEPVGITDQGKIKHGTRSDSETESCSDSDDDHEKEKHNPVSDSDTEGSDMNDDKGSLSSDPDTERSHEVDGDQKKQVDTMDEDDKAT | failed
3 | MRAGDGKIRVPADLDAVTATGEEDHSEIDGAAVDRIWRAARHWYRAGMHPAIQLCIRHHGRVVLNRAIGHGWGNAPTDEADAEKIPVTTDTPFCVYSAAKAITATVVHMLVERGHFALDDRVCEYLPSYTSHGKHRTTIRHVLTHSAGVPFPTGPRPDVRRADDHEYAVERLGELRPLYRPGLVHIYHALTWGPLMREIVYAATGKEIREILATEILDPLGFRWTNFGVAERDVPLVAPSHATGRQLPPVIAAVFRKAIGGTVHEIIPYTNTPFFLSTILPSSNTVSTANELSRFMEILRRGGELDGVRVLSPETLRGAVTECRRLRPDFATGLMPLRWGTGFMLGSAKYGPFGRNAPAAFGHLGLVNIAVWADPERALSGGLISSGKPGRDPEAGRYGALLNAITAEIPRASSG | failed
4 | MRAHGRRVSKRQPDSPGRLRGAFGSRLHLSPLTRLPARPIWRPRAGCAVPLAGPGCDPAGFMLKSPSFPFSAPAMLRHLPMTYCAIDFGTSNSAVALPDGDGMRLAPVEGDHLTLPTAIFFNNDEQTVEYGRAALASYIDGFDGRLMRSMKSILGSPLAETTTDLGDGSAMAYTEIIARFLTHLKRKAEARAGAPIGRAVLGRPVFFVDEDPRADRLAQDQLEAAARSVGFTDVHFQYEPIAAAFDYESRQQAERLVLVADIGGGTSDFSLVRVGPERMARLERKDDVLAHHGVHVAGTDYDRRVELAAILPAFGYRALDPEGRELPNRIYFDLATWHLINTVYTPKRLGELKLMKHLYQDGRQHDRLMSVVEQRLGHALMARAEEAKIGVAAGGETMIDLNDVEEDLQIAFDAERLVEASVDDTARIVDAARETVRLAGVAPRDLGALYFTGGSTGLAFLSGALAGAFPDAQPVFGDRLASVATGLGIHAQRLFG | failed
5 | MRAQMKQYNCHEGALPFTKSYLLRPLFNAFLMSPKPFHTTEACIGCKKCEKVCPVGNITVTDRPVWGGNCTQCLACYHVCPVHAVEYLEHHHHHH | failed
6 | MRARHASCMHPPSLSADPVALMTDTPASSETSASGWRRALPVIVSLAILAMALHALSSQFTDHGYRQIRHAFRALGAGQITLTLLLGLSSYVCLVGFDWVGLKRTGKQLHPARVGITAFMAHAVGQTLGFAALTGGAVRLRGYGSVGLTLAEIGQVVLMSTLGFIFGAWVLLGLALMLEPEAAARALPITAQAIRIAGIALLVGYVAMLMLVGRQGREFGIRSHRFWLPDRTTVLGVTALSVVELGLAAAAFYVLLPPDSGTGYFGFIGIWLVAVVAGLISTVPAGLGVFEWSLLELLPHVTPAAVLAAALVYRVTYYIVPLLISVAMAAASGLRVPVRVGASTARSVWKALRPWLPQILALAVFAVGAALVIDGTLPTPAARQEVAPLPLIETSHLLVSLGGMMLLLIGQGLQRRSHSAWMLALGVCLLVPPFALLRGSHISVSLSAALAAVALWAARREFYRQGALLDEAWSWRWLSNLGLVLVATFWLLFFVYSHVEYSNDLWWQFATSANAPRALRAALILCVGVIVFGMARLLRGGRRPMPAADAPTLRTLAPILATSTDTQACLALTGDKAFLLDEQSSGFVMMQRYGGSLISMGDPVGSPEVARALIWRFREEADQMGLRTVFYQVGEKHWQTYLDMGLTLVKLGEEAIVPLEGFTLEGRDRADLRQAWNRGKRGGLSFRMLQPEQVDEVLPRLAEVSDQWMEEKSGEEKGFSLGSFDADYLRRFPVAVAEAEGQIVAFANVWWAPAGGELSVDLMRHSAEAPKGTMDFLFIELFLWGQANGYTRFSLGMAPLSGLAEHRLAGRWNRFASLVARHGERFYGFSGLRRFKSKFDPTWRPRYLVAPGGMHLPAALLDVTRLISADPRRQE | failed
7 | MRCANCGNELKAGSLYCDVCGHPVQIVPDYNEFDDYLDNLVGNDDRRTDGQKTAKPVSDRTIRFDDPVREQLHSAGQWNGQKTDRMSQSVKQQVRQAQTGEQQSQTKQPCEKPQSDGQRAKRAQQKKIIIISAVVCAVAIVILIAAITRNVSRSHDNSFDYQVKQAKAAYSAGNINSAVSYYEKALSIDSDNTDVRFALADIYMSKKDYDAALVLYQEIINIDPKSKEAYKQLISIYESKKDYDAIVALRESAKDASVLKLFADYTVSKPQFSKSSGKYGETMELSIDADSDTKIYYSYDSDDPLTRGERYYSPITLDKEGTYEITAVAVDDRGIKSEVASAKYEIEFEAPDAPEIDPDGGTFGAQTDITITVPENCKVYYTWDSSDPSAASTEYTAPIPVPEGNNVLSVIAIDQNTGKCSDIYRSRFEFYMN | failed
8 | MRDHPADRLQSITVTAFYQEPNVPTHSLSDYTSWIERTWQGQVSFTELVTYAETLNSHPALCAALYRTWLQRNTGVFNSVAWFNLGVILFAENNLIDSIEAFQKALALSPAFPQARINLGLALERQGNAEAAIEQWQAVVENAITPEADQNTGPNQADQIKNLTMALNNIGRLQETRRQYQAATQALEKSLQLDPDQPDAIHHLIFQRQKQCQWPVYAPVGKVTEAVLHEHTSALAMLNISDAPEAQLTAALNYSRRKIPADLPRLSPANGYRHDKIRVAYCSSDFCTHPVAMLTVELFEHHDKNRFETYAFCWSPDDGSTLRQRILSAVDHYIPVHGKSDDEVAQLIRQHEIDILIDLQGQTSGAKTRMLAMRPAPMQITYLGLPATTGLPGIDYVIADRYLIPEEYARFYSEKPLYMPDVYQVSDRKREHSPAPTRKDCGLPARKFVFCSFNNNHKYTLEVFTTWMNILRRVPNSVLWLLADNPWARENLQKQAKAQGIDPKRLVFAERTMPADYLARYLVADLFLDTFPFNAGTTANDALWMGLPVLTMSGRSFASRMAGALLTAADLPELITHDLQTYEDKAVALAADAKARKTMRQKLALAKESGPLFDSLRFTRNLEQQYIALVSELQNPSQHINISAQPEPTKLGEPAQPNPIIATVQEAEALQARGDTQGAIQLYRQWLEHAHSGDEWIAQFNLGVLLRDGGDITGAQQAFQAVLKQKPDFVQARAALGKLPAPVTTESQKHGAIIGPLQTNSPISTKSKEQITQIFSETPKIKLLVEGWRGINHSFALVNQYHLYEWMRSSQLHIYHRDMPLLFSHWETNKNRGNTGLPGTYSQRLAQVQHWSGQTYDACFRIYSPVTLAPDDKHPVSTFLVTELGLDETQIAHFRPNLKAYFNMGGNIVTPSHWSKERIIEAGIPAEHIHLISHGVASNIFHPMHSDERAIHRQRLGFDREAVIFLNVAAPIWNKGLDLLIQAFVQCFHQNPHTRLLIKDQQAVYGISTKDTVLREITLLGESKNESLLNAIRVIPDLNLLQLRELYCIADYYVSPYRAEGFNLPVIEALVCGTPVIVTEGGATQDFCSEKNALFIEAVPYRNVKINDRHVNAYQAPILDSLITHLNVCAQDKPFSESQRLQNAASIAKNFTWAKAADTISRLFTQSNDCNTSTSQITGALHEEPQYCN | failed
9 | MRDLLNDLSEGLSHPDPILRAQIQMQKPLPKRFYKDVTVADVEEGGFTILLDGKPLRTPAKKPLVAPSRALADLLRDEWDAQKEVVNPVVMPVSRHVNTAIDGIASDTQAVFEDILRFSSSDLLCYRAGDPEALVARQTDYWDPVLDWATNVLGARFILVEGVMHRDQPREAIAAFAVTLKKYDTPIALAALHTMTSLTGSAILALALAEGELTLEEAWALAHLDEDWTAEQWGEDEEALERRAVRLIDMRAALNVLESLKSAS | not failed
10 | MRDPRLAPFRAPALAFAALLLVSAASGAVLFVLKLGTTAARVQEFYLGSEARFTAPRTLGGILEVAVPHLVAVPLVLFAVAHLVAFTRALRPRPYAALVRLSFGCALAGALAGLGIRFVAPWLAWVKIGAFVGLEAALLAWAALLVGLFLPDRAEAHARRAAAADGASPQRVPGAPRRD | failed
11 | MRDTRESRLLLVLLVAIAFALITVDIRGGQDSPVDGARQAAATVFGPIENGVSSAVDPVGNAVAAVRDSGSRHDRIAQLEHDNAALKAKLGSDDRNRSRLKQLNKMIRVAGEGQYGIKGAEVIGIGAAQGFSWTVTIDVGANDGIKRDMTVLNGDGLVGRVTTVGPNAATVLLANDPDFTVGTRMESSDELGFASGQGDRPLRVQLLNGKAKVVKGDRLVTFGSQADRPFVPGVPVGVVSRVDPSGGDLTRTVYVTPYVSFTKLDIVGVVVAAPKKDPRDEVLPPKPRPTPTPTVTVTVTPSANASADGQQQQQ | failed
12 | MRDTTWHVPEDDLRAYVQGELAPPRLWSADTHLAACERCRAALAEAGDPVALDAAWERLDAELDAPRPGMFESLLVRAGVADHTARLLTATPVLRRSWLGAVAFLLVMTVGIVLTVDSPALFLALAPLLPLAGVALSYGPVLDPTYEMAVVAPLHGFRLLLIRTLAVLATGLLLNGLATLALPGYGLRALAWLLPALALTGTGLALTPRLGPVLAPALTGGAWIGLLLVAQARTHETLAPFTMAGQGAAAVVAALAAGLLYRTRDRFDSVAARLPFAHLPGGGAV | failed
13 | MRDWPAFLLALLVAFALWYSLQERAPVVERSLKVPLQVVGLGEGRRALGLPREVLLRLRGPAPLLEGRALPVSAYLDLSGAEGEVVREVRVAAPQGVEVLEVVPARVGVVVEVEAQRQIPVEVLAQGAWVLTDPAFVEAVGPESQVEAAVSAVGLDLGDEVVLFPLGPEGPLEGVELRPNRVRVVERREALFLKEVPLSLNPPPGRRLLDYAPKTVRLVGPREALEGLAGVTATLQEALGPGEVEVAVAPDLPPGVHTLGPVRVRVALELEHHHHHH | failed
14 | MREAGDAIARLRTLRDAAGRLVASRASLLRRAPVGLVVAAVVIPLVGCDTGPNFWFHKRASACPRPQVAQGVSGQFNQQQQEIRALRQGGFRGDFFAQLELARRYEGQRAVDKNLEDPVEAAVWYAMALANSGGYAPIAAYERRGKESRAVSRFDDCRAFERRSAYGALDRLLSRMSTEEREKVRNRVIYILSTQSADGFRTLARMHDGYFGPFGEPSDNLQAIEAYGKPSQPGAPAALDLFRRNDVDAYLYNYLAVQTGDVSAYVMLKDFERSSPQRASYGSFVETKAKRWIPPYEFYPPESPDSGVPHSDEADLSGEARESALYRIAELPFVHVGESLAYLRVIPTAVLDEKMLSVTEVQTLQSMIGRPNTGRLAPIEKVRAVQYAAVNGSSKAQLVLAVMYSEGVGVPRDYARAYHWYEEAERQGSAEAKYAMSTFFSLGLQGVADQDRAKAVVYQIDGALAGFKPSAWRLQQLLAQVSRPPRAAGERPQPRPIYGADDYRAAPRADDRDPRQDQPGSDRGGRPYNEGNY | failed
15 | MREDAARDRMRGFGFHEHVISESIKELLEVYEDQWFLIEDDSYGPLLAICLEKQEEKEKQLAEVQANQLPENHNEEMAEEEQPNQLAVEIHEEEKEQEQDMHIEYGRDQADELSINSEAVNDPSPAAIHLGEASSDYAQSSVRGVENLHCGWLIDEEETDPEEETDPEEKETEPEDPKEKETEPEEDSDGDDDEIIQLTPEPLCEELQELLREVRGQKRRKKEMRWDK | failed
16 | MREEHSPVRDGRRSGGLRSLIDPRFLSSFALNDGGSISGRRSSYLKLPPQGRIKLSVVKLNGSLFDVEVAKDCSVAELKRAVEQVFTISPLEGHGMISWSHVWGHFCLCYRDQRLVNDKTSIRYLGLNDGDQLHFVRHLSIDHSPMNKRSKSPSCKRYLELDVSSIVNEIQIQNQNQNGVDDVAEKCYPGAQDELPAAESRLVNLIKGWLPYAGRWGVSRKGPECRSGPSRFSLKHFGGRPKM | failed

— a protein production outcome set (Wang et al. 2014)
